Laboratory results taken from patent publication US20200255542A1 (Merck Sharp & Dohme, published 2020).

Assays:
[1] = target: T1, human coagulation Factor XI (FXI) zymogen (human, UniProt P03951 19-625); assay: cell-based or functional assay
human FXIa [2] = target: T2, human FXIa (human, UniProt P03951 19-625); assay: cell-based or functional assay
[3] = target: T1, human coagulation Factor XI (FXI) …; assay: cell-based or functional assay; remark: listed apart in the source
[4] = target: T3, Human plasma preKallikrein (human, UniProt P03952 20-638); assay: SPR (Biacore T200), mAb captured on anti-human IgG (Fc) chip, single analyte concentration;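 further: Anti-FXI mAbs captured about 500 RU, anti-RSV mAb as reference, coagulation cascade proteins injected at 500 nM (FXI 5 nM), 25 °C, HBS-EP+ pH 7.4, 1:1 fit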
T3 construct: also called HPK 1302
Procedure: (§1) Anti-FXI mAbs were captured on a CM5 sensor chip immobilized with anti-human IgG (Fc) capture kit (GE Healthcare) at approximately 500 RU to minimize potential background from co-purifying Igs in plasma derived proteins. Negative control antibody, anti-respiratory syncytial virus (RSV) monoclonal antibody (mAb), was used as a reference and to help reduce background binding of plasma-derived proteins. Binding kinetics was measured using an analyte concentration of FXI at 5 nM; all other coagulation cascade proteins were used at an analyte concentration of 500 nM. Single concentration injections (n=2) were run at 30 μL/min, 25° C., HBS-EP+, pH 7.4.
(§2) Biacore T200 evaluation software was used to fit data to a 1:1 binding model to determine the association rate constant, kₐ (M⁻¹ s⁻¹, where “M” equals molar and “s” equals seconds) and the dissociation rate constant, kd (s⁻¹). These rate constants were used to calculate the equilibrium dissociation constant, KD (M).

Human plasma Kallikrein = target: T4, Human plasma Kallikrein (human, UniProt P03952 20-638); assay: as above
T4 construct: also called HPKa 1303
Procedure: as §1, §2

[5] = target: Human Factor II (α-thrombin) (human, UniProt P00734 328-622); assay: as above
Procedure: as §1, §2

Human Factor VII = target: T5, Human Factor VII (human, UniProt P08709 61-466); assay: as above
T5 construct: also called FVII; HCVII-0030
T5 sequence (looked up): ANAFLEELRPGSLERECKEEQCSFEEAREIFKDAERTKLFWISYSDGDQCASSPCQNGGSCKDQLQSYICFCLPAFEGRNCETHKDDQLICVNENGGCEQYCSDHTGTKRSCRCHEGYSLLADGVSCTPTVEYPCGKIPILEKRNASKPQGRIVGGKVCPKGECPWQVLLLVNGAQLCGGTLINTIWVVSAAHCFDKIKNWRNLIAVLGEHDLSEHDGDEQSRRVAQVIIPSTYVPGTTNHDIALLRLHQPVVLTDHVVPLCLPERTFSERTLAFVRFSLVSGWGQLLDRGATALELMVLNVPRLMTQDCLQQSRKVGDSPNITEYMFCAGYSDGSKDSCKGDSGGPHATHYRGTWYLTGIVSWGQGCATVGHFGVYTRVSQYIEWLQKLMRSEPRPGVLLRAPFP
Procedure: as §1, §2

[6] = target: T6, Human Factor VIIa Protease (human, UniProt P08709 61-466); assay: as above
T6 construct: also called FVIIa; HCVIIA-0031
T6 sequence (looked up): T5 sequence (looked up)
Procedure: as §1, §2

Human Factor IX = target: T7, Human Factor IX (human, UniProt P00740 47-461); assay: as above
T7 construct: also called FIX; FIX zymogen
Procedure: as §1, §2

[7] = target: T8, Human Factor IXa Protease (human, UniProt P00740 47-191; P00740 227-461); assay: as above
T8 construct: also called FIXa; HFIXa 1080
Procedure: as §1, §2

Human Factor X = target: T9, Human Factor X (human, UniProt P00742 41-488); assay: as above
T9 construct: also called FX; HFX1010
Procedure: as §1, §2

Human Factor Xa Protease = target: T10, Human Factor Xa Protease (human, UniProt P00742 41-179; P00742 235-488, limits assumed); assay: as above
T10 construct: also called FXa; HFXa 1011
Procedure: as §1, §2

Human Factor XII = target: T11, Human Factor XII (human, UniProt P00748 20-615); assay: as above
T11 construct: also called FXII; HFXII 1212
T11 sequence (looked up): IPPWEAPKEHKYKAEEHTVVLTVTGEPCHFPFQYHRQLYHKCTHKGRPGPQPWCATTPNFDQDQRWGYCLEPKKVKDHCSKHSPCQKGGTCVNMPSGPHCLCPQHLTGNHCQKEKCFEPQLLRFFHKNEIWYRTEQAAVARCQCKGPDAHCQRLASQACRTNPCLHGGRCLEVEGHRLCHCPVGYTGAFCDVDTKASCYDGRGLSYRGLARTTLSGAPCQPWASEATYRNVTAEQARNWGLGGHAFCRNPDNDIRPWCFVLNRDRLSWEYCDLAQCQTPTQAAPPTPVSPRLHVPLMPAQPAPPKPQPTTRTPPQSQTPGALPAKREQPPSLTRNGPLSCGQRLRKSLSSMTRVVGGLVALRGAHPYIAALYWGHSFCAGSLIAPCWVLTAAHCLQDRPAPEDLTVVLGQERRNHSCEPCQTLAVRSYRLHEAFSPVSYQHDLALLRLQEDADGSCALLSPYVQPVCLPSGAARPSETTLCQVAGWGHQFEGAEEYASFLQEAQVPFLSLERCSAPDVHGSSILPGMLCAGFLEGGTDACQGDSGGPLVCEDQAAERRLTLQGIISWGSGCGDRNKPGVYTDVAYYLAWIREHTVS
Procedure: as §1, §2

[8] = target: T12, Human Factor XIIa Protease (human, UniProt P00748 20-615, limits assumed); assay: as above
T12 construct: also called FXIIa; Human Factor Xlla Protease
T12 sequence (looked up): T11 sequence (looked up)
Procedure: as §1, §2

[9] = target: T13, Human Factor II (Prothrombin) (human, UniProt P00734 44-622); assay: as above
T13 construct: also called FII; lot 41AHG
Procedure: as §1, §2

[10] = target: T14, Rhesus monkey plasma Kallikrein (rhesus monkey, UniProt A0A1D5Q7U7 20-638); assay: as above
T14 construct: Recombinant, Merck Sharp & Dohme; also called NHP plasma kallikrein; lot 00AJF; not shown: C-terminal His tag

[11] = target: T1, human coagulation Factor XI (FXI) …; assay: SPR (ProteOn XPR36), antibody captured by anti-human IgG Fc, FXI as analyte; mean ± SD, N=3
Procedure: (§3) After capture of anti-FXI antibodies, running buffer (1×HBS-N, 5 mM CaCl₂, 0.005% P20, pH 7.4) was injected across all horizontal flow channels (A1-A6) for 5 minutes and allowed to dissociate for 20 minutes at 25 μL/min to remove any non-specifically bound anti-FXI antibodies from the chip surface.
(§4) After capture of anti-FXI antibodies, running buffer was injected across all horizontal flow channels (A1-A6) for 5 minutes and allowed to dissociate for 20 minutes at 25 L/minutes to remove non-specifically bound anti-FXI antibodies from the chip surface.

[12] = target: T15, cynomolgus monkey FXI zymogen (cynomolgus monkey, UniProt A0A2K5VVW4 19-624); assay: as above
T15 construct: also called cyno FXI; NHP FXI
Procedure: as §3, §4

[13] = target: T16, rhesus monkey FXI zymogen (rhesus monkey, UniProt F6PJ95 19-624); assay: as above
T16 construct: also called Rhesus FXI; NHP FXI
Procedure: as §3, §4

human FXIa [14] = target: T2, human FXIa; assay: SPR (ProteOn XPR36), antibody captured by anti-human IgG Fc, FXIa as analyte; mean ± SD, N=3
Procedure: as §3, §4

cynomolgus monkey FXIa = target: T17, cynomolgus monkey FXIa (cynomolgus monkey, UniProt A0A2K5VVW4 19-624); assay: as above
T17 construct: also called NHP FXIa
Procedure: as §3, §4

rhesus monkey FXIa = target: T18, rhesus monkey FXIa (rhesus monkey, UniProt F6PJ95 19-624); assay: as above
T18 construct: also called NHP FXIa
Procedure: as §3, §4

[15] = target: T19, Cynomolgus monkey plasma Kallikrein (cynomolgus monkey, UniProt A0A2K5VTJ9 20-638); assay: SPR (Biacore T200), mAb captured on anti-human IgG (Fc) chip, single analyte concentration;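 further: Anti-FXI mAbs captured about 500 RU, anti-RSV mAb as reference, coagulation cascade proteins injected at 500 nM (FXI 5 nM), 25 °C, HBS-EP+ pH 7.4, 1:1 fit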
T19 construct: Recombinant, Merck Sharp & Dohme; also called NHP plasma kallikrein; lot 65AJE; not shown: C-terminal His tag
T19 sequence (A0A2K5VTJ9 entry or part of it): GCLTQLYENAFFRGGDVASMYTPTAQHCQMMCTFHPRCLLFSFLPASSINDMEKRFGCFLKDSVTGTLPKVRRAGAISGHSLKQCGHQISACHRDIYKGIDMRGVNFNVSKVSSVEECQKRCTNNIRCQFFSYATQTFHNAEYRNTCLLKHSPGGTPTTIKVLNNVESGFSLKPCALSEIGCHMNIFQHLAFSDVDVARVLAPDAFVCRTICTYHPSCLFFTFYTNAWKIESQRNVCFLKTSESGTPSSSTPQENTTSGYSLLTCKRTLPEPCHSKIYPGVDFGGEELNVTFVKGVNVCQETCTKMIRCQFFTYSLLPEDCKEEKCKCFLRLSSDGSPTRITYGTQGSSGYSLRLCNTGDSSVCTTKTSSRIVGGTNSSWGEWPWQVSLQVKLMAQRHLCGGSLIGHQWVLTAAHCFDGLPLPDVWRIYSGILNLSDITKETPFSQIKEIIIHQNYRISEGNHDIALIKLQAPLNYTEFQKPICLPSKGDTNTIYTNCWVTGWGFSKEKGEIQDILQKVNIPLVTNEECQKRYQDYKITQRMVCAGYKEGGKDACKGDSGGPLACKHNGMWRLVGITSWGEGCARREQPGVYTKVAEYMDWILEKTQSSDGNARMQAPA

T15 sequence (A0A2K5VVW4 entry or part of it): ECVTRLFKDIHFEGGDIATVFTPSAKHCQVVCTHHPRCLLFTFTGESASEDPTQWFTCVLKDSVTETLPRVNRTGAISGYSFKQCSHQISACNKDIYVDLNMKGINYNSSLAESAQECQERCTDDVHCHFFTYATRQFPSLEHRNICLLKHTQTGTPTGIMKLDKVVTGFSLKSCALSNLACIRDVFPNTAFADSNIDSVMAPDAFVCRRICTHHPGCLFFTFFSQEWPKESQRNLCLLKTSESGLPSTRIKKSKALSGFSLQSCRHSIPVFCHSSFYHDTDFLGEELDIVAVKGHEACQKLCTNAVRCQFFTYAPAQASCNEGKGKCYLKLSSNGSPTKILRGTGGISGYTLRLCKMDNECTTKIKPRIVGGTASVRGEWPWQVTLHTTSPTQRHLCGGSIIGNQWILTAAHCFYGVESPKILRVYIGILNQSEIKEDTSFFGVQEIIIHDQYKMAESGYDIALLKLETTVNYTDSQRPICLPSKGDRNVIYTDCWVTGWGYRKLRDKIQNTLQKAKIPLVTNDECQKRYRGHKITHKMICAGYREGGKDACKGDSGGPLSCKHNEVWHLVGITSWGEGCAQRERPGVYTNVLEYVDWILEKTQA
T17 sequence (A0A2K5VVW4 entry or part of it): as above
T3 sequence (P03952 20-638 limits assumed): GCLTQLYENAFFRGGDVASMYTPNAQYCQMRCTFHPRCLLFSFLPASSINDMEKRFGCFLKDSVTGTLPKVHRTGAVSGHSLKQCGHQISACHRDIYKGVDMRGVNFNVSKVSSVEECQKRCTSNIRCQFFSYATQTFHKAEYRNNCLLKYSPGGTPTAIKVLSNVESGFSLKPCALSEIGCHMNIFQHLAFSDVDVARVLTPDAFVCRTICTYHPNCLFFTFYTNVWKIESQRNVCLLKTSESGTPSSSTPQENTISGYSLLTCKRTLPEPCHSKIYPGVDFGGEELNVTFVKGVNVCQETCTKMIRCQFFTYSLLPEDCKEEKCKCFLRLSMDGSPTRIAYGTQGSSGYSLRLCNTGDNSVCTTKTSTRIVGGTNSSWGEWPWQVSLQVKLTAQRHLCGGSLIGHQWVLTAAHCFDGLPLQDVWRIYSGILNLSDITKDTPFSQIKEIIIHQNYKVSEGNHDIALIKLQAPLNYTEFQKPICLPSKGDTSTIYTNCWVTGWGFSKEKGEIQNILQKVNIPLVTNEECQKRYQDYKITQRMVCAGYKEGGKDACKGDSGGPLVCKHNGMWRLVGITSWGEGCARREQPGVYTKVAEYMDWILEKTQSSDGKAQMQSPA
T4 sequence (P03952 20-638 limits assumed): as above
T16 sequence (F6PJ95 entry or part of it): as the sequence (A0A2K5VVW4 entry or part of it) above, with N101D, E113K, V126I, A191V counted along it
T18 sequence (F6PJ95 entry or part of it): as the sequence (A0A2K5VVW4 entry or part of it) above, with N101D, E113K, V126I, A191V counted along it
T14 sequence (A0A1D5Q7U7 entry or part of it): as the sequence (A0A2K5VTJ9 entry or part of it) above, with T24N counted along it

B1: αFXI-18623p IgG4 HC (S228P)(Q1)/LC Kappa (antibody, V domains shown)
VH: QVQLQESGPGLVKPSQTLSLTCTVSGGSIYSGAYYWSWIRQHPGKGLEWIGSIHYSGLTYYNPSLKSRVTISVDTSKNQFSLKLSSVTAADTAVYYCARDVDDSSGDEHYGMDVWGQGTTVTVSS
VL: DIQMTQSPSSVSASVGDRVTITCRASQGIDSWLAWYQQKPGKAPKLLIYAASSLQSGVPSRFSGSGSGTDFTLTISSLQPEDFATYYCQQYHIVPITFGGGTKVEIKR
notes: Fully human IgG4 (S228P)/kappa; also called αFXI-18623p-IgG4 (S228P) (Q1)/LC Kappa
FXIIa Activation + HK Inhibition (IC50, nM) [1]: 6 nM | FXIIa Activation no HK Inhibition (IC50, nM) [1]: 14 nM | FXIa IC50 nM (native, full-length substrate; activation of FIX to FIXa) (human FXIa [2]): 0.4 nM | FXIa IC50 nM (tri-peptide substrate) (human FXIa [2]): > 1000 nM | FXI Autoactivation IC50 nM (on dextran sulfate) [3]: 5.5 nM | binding result [4]: no binding (tested: 500 nM) | binding result (Human plasma Kallikrein): no binding (tested: 500 nM) | binding result [5]: no binding (tested: 500 nM) | binding result (Human Factor VII): no binding (tested: 500 nM) | binding result [6]: no binding (tested: 500 nM) | binding result (Human Factor IX): no binding (tested: 500 nM) | binding result [7]: no binding (tested: 500 nM) | binding result (Human Factor X): no binding (tested: 500 nM) | binding result (Human Factor Xa Protease): no binding (tested: 500 nM) | binding result (Human Factor XII): no binding (tested: 500 nM) | binding result [8]: no binding (tested: 500 nM) | binding result [9]: no binding (tested: 500 nM) | binding result [10]: no binding (tested: 500 nM) | Kd [11]: 0.0226 nM | Kd [12]: 0.013 nM | Kd [13]: 0.0722 nM | Kd (human FXIa [14]): 0.0374 nM | Kd (cynomolgus monkey FXIa): 0.0195 nM | Kd (rhesus monkey FXIa): 0.149 nM

B2: αFXI-18611 IgG4 HC (S228P)(E1)(L105)/LC Kappa (antibody, V domains shown)
VH: EVQLQESGPGLVKPSETLSLTCAVSGYSISSGYFWGWIRQPPGKGLEWIGSILHSGVTYYNPSLKSRVTISVDTSKNQFSLKLSSVTAADTAVYYCARDRTTVSLIEYFQHWGQGTLVTVSS
VL: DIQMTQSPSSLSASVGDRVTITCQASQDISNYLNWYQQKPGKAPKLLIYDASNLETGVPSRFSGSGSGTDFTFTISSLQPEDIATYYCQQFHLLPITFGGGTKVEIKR
notes: Fully human IgG4 (S228P)/kappa; also called αFXI-18611 mAb
FXIIa Activation + HK Inhibition (IC50, nM) [1]: 7.6 nM | FXIIa Activation no HK Inhibition (IC50, nM) [1]: 34 nM | FXIa IC50 nM (native, full-length substrate; activation of FIX to FIXa) (human FXIa [2]): 1 nM | FXIa IC50 nM (tri-peptide substrate) (human FXIa [2]): > 1000 nM | FXI Autoactivation IC50 nM (on dextran sulfate) [3]: 3.3 nM | binding result [15]: no binding (tested: 500 nM) | binding result [4]: no binding (tested: 500 nM) | binding result (Human plasma Kallikrein): no binding (tested: 500 nM) | binding result [5]: no binding (tested: 500 nM) | binding result (Human Factor VII): no binding (tested: 500 nM) | binding result [6]: no binding (tested: 500 nM) | binding result (Human Factor IX): no binding (tested: 500 nM) | binding result [7]: no binding (tested: 500 nM) | binding result (Human Factor X): no binding (tested: 500 nM) | binding result (Human Factor Xa Protease): no binding (tested: 500 nM) | binding result (Human Factor XII): no binding (tested: 500 nM) | binding result [8]: no binding (tested: 500 nM) | binding result [9]: no binding (tested: 500 nM) | binding result [10]: no binding (tested: 500 nM) | Kd [11]: 0.1 nM | Kd [12]: 0.18 nM | Kd [13]: 0.0529 nM | Kd (human FXIa [14]): 0.0554 nM | Kd (cynomolgus monkey FXIa): 0.0892 nM | Kd (rhesus monkey FXIa): 0.175 nM
